B1: OmCI (natural protein)
chain: DSESDCTGSEPVDAFQAFSEGKEAYVLVRSTDPKARDCLKGEPAGEKQDNTLPVMMTFKNGTDWASTDWTFTLDGAKVTATLGNLTQNREVVYDSQSHHCHVDKVEKEVPDYEMWMLDAGGLEVEVECCRQKLEELASGRNQMYPHLKDC
notes: also called Coversin

Assays:
[1] = molecular target: complement C5 (human (endogenous in serum)) (UniProt P01031); assay: SPR
[2] = molecular target: complement C5 (human (endogenous in serum), UniProt P01031 19-673; P01031 678-1676); assay: SEC-MALS; 100 uL at 1 mg/mL on S200 10/300 in PBS; C5-OmCI with RaCI and EcuFab, with or without CirpT1 (2-fold molar excess, excess removed by SEC); conditions: both partners purified
Sequence of complement C5 (P01031 19-673, chain 1 of 2): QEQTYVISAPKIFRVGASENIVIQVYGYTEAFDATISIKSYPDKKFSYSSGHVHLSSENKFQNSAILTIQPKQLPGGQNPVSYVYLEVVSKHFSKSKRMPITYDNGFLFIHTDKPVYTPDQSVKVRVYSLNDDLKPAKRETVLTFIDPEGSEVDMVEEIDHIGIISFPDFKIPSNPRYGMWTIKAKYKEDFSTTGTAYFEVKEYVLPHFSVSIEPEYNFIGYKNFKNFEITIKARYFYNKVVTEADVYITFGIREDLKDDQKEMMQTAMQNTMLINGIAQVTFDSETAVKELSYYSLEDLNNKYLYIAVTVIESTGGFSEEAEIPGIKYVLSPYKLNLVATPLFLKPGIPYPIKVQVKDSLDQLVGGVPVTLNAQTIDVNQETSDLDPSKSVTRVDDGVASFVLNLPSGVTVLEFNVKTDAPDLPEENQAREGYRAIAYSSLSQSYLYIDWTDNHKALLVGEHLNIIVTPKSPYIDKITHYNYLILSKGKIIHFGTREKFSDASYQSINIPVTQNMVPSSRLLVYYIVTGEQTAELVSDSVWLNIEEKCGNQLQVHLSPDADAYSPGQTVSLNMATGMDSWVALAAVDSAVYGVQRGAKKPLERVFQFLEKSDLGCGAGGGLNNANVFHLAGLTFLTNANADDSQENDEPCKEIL
Sequence of complement C5 (P01031 678-1676, chain 2 of 2): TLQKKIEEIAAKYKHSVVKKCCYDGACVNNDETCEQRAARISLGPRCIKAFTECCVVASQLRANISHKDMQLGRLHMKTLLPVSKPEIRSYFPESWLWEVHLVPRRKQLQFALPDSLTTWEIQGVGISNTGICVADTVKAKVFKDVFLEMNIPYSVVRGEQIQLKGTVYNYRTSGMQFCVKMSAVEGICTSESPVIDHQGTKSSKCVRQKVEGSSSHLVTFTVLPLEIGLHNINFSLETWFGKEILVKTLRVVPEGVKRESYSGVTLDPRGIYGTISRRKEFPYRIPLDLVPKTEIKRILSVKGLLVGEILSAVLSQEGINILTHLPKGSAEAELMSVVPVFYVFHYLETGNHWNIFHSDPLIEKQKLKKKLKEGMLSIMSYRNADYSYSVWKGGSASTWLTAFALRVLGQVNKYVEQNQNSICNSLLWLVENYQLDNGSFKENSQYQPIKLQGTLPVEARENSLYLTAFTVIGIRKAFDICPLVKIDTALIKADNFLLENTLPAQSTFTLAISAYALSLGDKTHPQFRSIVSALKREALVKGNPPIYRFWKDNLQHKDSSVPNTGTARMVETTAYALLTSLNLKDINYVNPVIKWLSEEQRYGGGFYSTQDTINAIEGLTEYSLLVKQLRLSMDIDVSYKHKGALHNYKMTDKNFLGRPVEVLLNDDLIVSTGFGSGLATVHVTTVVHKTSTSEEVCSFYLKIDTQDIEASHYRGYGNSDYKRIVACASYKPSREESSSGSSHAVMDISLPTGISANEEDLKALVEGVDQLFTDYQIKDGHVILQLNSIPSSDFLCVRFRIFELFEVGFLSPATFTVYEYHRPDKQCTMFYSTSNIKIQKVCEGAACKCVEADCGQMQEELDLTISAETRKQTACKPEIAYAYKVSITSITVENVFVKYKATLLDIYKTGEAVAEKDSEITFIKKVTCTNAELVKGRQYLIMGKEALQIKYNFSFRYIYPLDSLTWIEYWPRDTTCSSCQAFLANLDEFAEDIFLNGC

Sequence of complement C5 (human (endogenous in serum)) (P01031 19-673, chain 1 of 2): as the sequence (P01031 19-673, chain 1 of 2) above
Sequence of complement C5 (human (endogenous in serum)) (P01031 678-1676, chain 2 of 2): as the sequence (P01031 678-1676, chain 2 of 2) above

Molecule | Kd [1] | binding result [2]
CirpT1 (complement inhibitor from Rhipicephalus pulchellus of the terminal pathway, family member 1) (natural protein) | 10 nM | –
B1 | – | binds
